Results from US12012599B2, “Compositions and methods for modulating left-right differentiation factor (LEFTY) and bone morphogenic factor (BMP)” (CZ Biohub SF LLC, priority 2018, dated 2024).

B1: BMP7: bone morphogenetic protein 7, BMPR2 ligand (protein)
chain: STGSKQRSQNRSKTPKNQEALRMANVAENSSSDQRQACKKHELYVSFRDLGWQDWIIAPEGYAAYYCEGECAFPLNSYMNATNHAIVQTLVHFINPETVPKPCCAPTQLNAISVLYFDDSSNVILKKYRNMVVRACGCH
B2: LEFTY1: left-right determination factor 1, secreted TGF-β superfamily protein; generic LEFTY may mean LEFTY1 or LEFTY2 (protein, UniProt O75610 77-366, looked up)
Left-right determination …: RFSQSFREVAGRFLALEASTHLLVFGMEQRLPPNSELVQAVLRLFQEPVPKAALHRHGRLSPRSARARVTVEWLRVRDDGSNRTSLIDSRLVSVHESGWKAFDVTEAVNFWQQLSRPRQPLLLQVSVQREHLGPLASGAHKLVRFASQGAPAGLGEPQLELHTLDLGDYGAQGDCDPEAPMTEGTRCCRQEMYIDLQGMKWAENWVLEPPGFLAYECVGTCRQPPEALAFKWPFLGPRQCIASETDSLPMIVSIKEGGRTRPQVVSLPNMRVQKCSCASDGALVPRRLQP

What was measured:
[1] = test system: pSMAD5; assay: Immunofluorescent pSMAD5 positive cells in mammary glands exposed to ligand-secreting fibroblasts; type: in vivo, mouse
Procedure: (§1) FIGS. 4A-4I. LEFTY1 inhibits the phosphorylation of SMAD2 and SMAD5 in basal mammary epithelial cells. FIGS. 4A-4C show exemplary quantification of pSMAD2 and pSMAD5 positive cells within the luminal and basal cells of mammary glands isolated from mice that were injected with control or LEFTY1-secreting L1 fibroblasts. Immunofluorescent detection of pSMAD2 or pSMAD5 proteins was used to visualize positive cells. KRT8 and SMA were used to determine the luminal or basal cells, respectively. […] Immunofluorescent detection of pSMAD2 or pSMAD5 proteins was used to visualize positive cells. KRT8 and SMA were used to determine the luminal or basal cells, respectively. FIGS. 4H-4I show representative images of the quantified sections for pSMAD2 and pSMAD5 analysis (Magnification, 400×). Data are represented as median±S.D. Statistical analysis, Student's T-test, n.s. non-significant; ****p<0.0001.
FIGS. 5A-5H. LEFTY1 inhibits pSMAD2 and pSMAD5 in the basal mammary epithelial cells. […] KRT8 was used to stain the luminal cells and SMA for basal cells (Magnification 400×). […] Gapdh was used as a housekeeping gene. […] Ten different fields were counted per condition (n=3). Data are represented as median±S.D. Statistical analysis, (a and b) Student's T-test, * p<0.05; (h) One-way ANOVA with Dunnet's adjustment, ****p<0.0001.

[2] = test system: pSMAD2; assay: Immunofluorescent pSMAD2 positive cells in mammary glands exposed to ligand-secreting fibroblasts; type: in vivo, mouse; details: basal and luminal compartments
Procedure: as §1

[3] = test system: mammary epithelial cells; assay: Mammary outgrowth formation on transplantation (ELDA); type: in vivo, mouse; details: primary transplantation
From the text: FIGS. 10A-10G. Mammary epithelial cells rely on LEFTY1 for their long-term proliferation potential. FIG. 10A is a schematic representation of the procedure used to inject control, LEFTY1- or BMP7-expressing mammary fibroblasts into the proximity of the mammary gland of 14-18 weeks old NSG female mice. Two to three weeks later, the mammary epithelial cells were isolated and injected in a limiting dilution fashion into weaning age […] mice to assess their engraftment potential. […] The next day, the transduced cells were injected in the cleared fat-pads of weaning age mice in order to test their exogenous mammary epithelial repopulation ability. […]
FIGS. 11A-11F. […] The number of positive outgrowths from the total of transplanted glands are shown, as well as the frequency and 95% CI of engrafting cells calculated by ELDA. […] The frequency and 95% CI was calculated using extreme limiting dilution analysis (ELDA). […]
Alteration of signaling pathways such as Wnt, Hedgehog and Notch results in branching phenotypes that may be linked to the frequency of cells that can be transplanted and originate mammary ducts in recipient mice (Lu & Werb, Science 322, 1506-1509 (2008)). We transplanted endogenous mammary epithelial cells that had been exposed to LEFTY1 or BMP7 for ^˜15 days in vivo and assessed ductal outgrowth formation upon transplantation into secondary recipients (FIG. 10A). […]

[4] = test system: mammary epithelial cells; assay: 3D organotypic mammary organoid formation; type: cell-based, mouse; details: Wnt-dependent organoid culture
Procedure: FIGS. 8A-8D. Autocrine and paracrine effects of NODAL and LEFTY1 in mammary epithelial cell populations. […] The sorted cells were grown in the 3D organotypic assays to test their organoid formation potential in the presence of NODAL. […] Each dot represents an organoid (n=3). […] Data are represented as median±S.D. Statistical analysis, One-way ANOVA with Dunnet's adjustment, **p<0.01.
FIGS. 9A-9F. Opposing effects of LEFTY1 and BMP7 in mammary organoid formation. […] Data are represented as median±S.D. Statistical analysis, one-way ANOVA with Dunnet's adjustment, *p<0.05; **p<0.01; ***p<0.001.
Since LEFTY1 and BMP7 were able to affect the branching of mammary glands, we hypothesized that the LEFTY1/BMP7 signaling axis may affect the proliferation of mammary epithelial cells. We exposed freshly dissociated mammary epithelial cells to NODAL, LEFTY1, BMP7 and CRIPTO-1 in a modified Wnt-dependent in vitro organoid culture system that was optimized for progenitor cell propagation (Zeng & Nusse, Cell Stem Cell 6, 568-577 (2010) and Jamieson et al., Development 144, 1065-1071 (2017)). In Xenopus, Wnt signaling controls the expression of Nodal and Cripto-1 during gastrulation. Consistent with the evolutionary conservation of the interaction between the Nodal and Wnt pathways (Branford et al., Curr Biol 12, 2136-2141 (2002)), NODAL had no effect on organoid formation in our Wnt-driven culture system (FIG. 8A).
In organoid cultures, the basal cells give rise to mixed phenotype colonies of luminal and basal cells. To prevent the formation of LEFTY1-expressing cells during organoid formation, genetic knockdown of LEFTY1 was done. To knock-down mouse LEFTY1, pSICO-R lentiviral vector was used (Ventura, PNAS, 2004). Different shRNAs were designed and cloned into pSICO-R. The target sequences of the shRNAs cloned were GGACAAGGCTGATGTGGAA (SEQ ID NO: 14) and GCAGGTTCCTGGTGTCAGA (SEQ ID NO: 15). The efficiency of knock-down was tested by transfecting HEK293T cells with pSICO-R-shLEFTY1 constructs with pEGFP-C3-LEFTY1 at 1:4 and 1:20 ratio. Decrease on GFP signal was used to calculate the percentage of inhibition of the shLEFTY sequences. […] (p<0.001 and p<0.01, respectively) (FIGS. 8C-8D and FIGS. 9E-9F).

Molecule | pSMAD5 in basal cells [1] | pSMAD5 protein levels in luminal cells [1] | pSMAD2 expression [2] | frequency of ductal outgrowths [3] | organoid formation (frequency, number of colonies) [4] | organoid size [4]
B1 | significant increase | no effect | no effect | did not affect | significantly decreased | significantly decreased
B2 | significant decrease | significant decrease | significant decrease | significantly increased | increased the number of colonies | 
